We go through two substances from publication PMC4705524.

Assay [1] deals with Pfs25-IMX313 (HEK293 cells, pENTR4-LPTOS shuttle plasmid) (Plasmodium falciparum | chicken) (UniProt P13829). The experiment in a line: non-reducing SDS-PAGE with western blot; 15 μL supernatant of transfected HEK293 cells per lane, reduced and non-reduced conditions, detected with anti-Pfs25 mAb 4B7.
Assay [2] concerns the target Pfs25-IMX313 protein-nanoparticle (P. pastoris) (Plasmodium falciparum | chicken) (UniProt P13829). Kind of assay: non-reducing SDS-PAGE with western blot; protein purified from P. pastoris supernatant, 500 ng per lane, reduced and non-reduced conditions, detected with anti-Pfs25 mAb 4B7. For orientation: Immunoblotting shows a protein as a band on a membrane.

Usually stoichiometry N stands for the number of molecules, sites or subunits per partner or assembly.

For the substance “Pfs25-IMX313 (HEK293 cells, pENTR4-LPTOS shuttle plasmid) (from UniProt P13829 22-193)”, in assay [1], the stoichiometry N stood at 7. With “Pfs25-IMX313 protein-nanoparticle (P. pastoris) (from UniProt P13829 22-193)”, the stoichiometry N in assay [2] was found to be 7.
